T1: Canine IL31 (canine)
T1 chain: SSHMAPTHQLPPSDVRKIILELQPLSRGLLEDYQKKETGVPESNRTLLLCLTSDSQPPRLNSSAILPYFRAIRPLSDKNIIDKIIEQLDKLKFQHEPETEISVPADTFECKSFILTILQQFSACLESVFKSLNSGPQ


Molecular target: T1, Canine IL31
Experiment: SPR, BIAcore 8K, Protein A sensor chip
Method: Chimeric antibodies composed of different combinations of cmVH1, cmVH2, or cmVH3 fused to human IgG1 heavy chain and cmVL1, cmVL2, and cmVL3 fused to human kappa constant light chain were generated. Caninized VH of M14 (SEQ ID NO: 3) fused to human IgG1 heavy chain and caninized VL of M14 (SEQ ID NO: 4) fused to human kappa constant light chain was also generated. Affinity of canine IL31 to the different chimeric antibodies was measured using a BIAcore 8K, as described in Table 3 below: […]

| Binder | Kd [nM] | koff [s⁻¹] | kon [M⁻¹ s⁻¹] |
| --- | --- | --- | --- |
| Caninized VH-VL M14 chimeric antibody (caninized VH of M14 fused to human IgG1 heavy chain and caninized VL of M14 fused to human kappa constant light chain) (antibody, V domains shown, Chimeric: VH fused to human IgG1 heavy chain, VL fused to human kappa constant light chain; also called analyte 1; caninized VH-VL M14 antibody control) VH: EVQLVESGPSLVKPGGSLRLTCSVTGDSITSGYWNWIRKFPGNKLEYMGYISYSGITDYNPSLKSRITISRDTSKNQYYLQLNSVTTEDTATYYCARYGNYGYAMDYWGQGTSVTVSS VL: DIVMTQSPASLSVSLGQRATISCRASESVDTYGNSFMHWYQQKPGQSPKLLIYRASNLESGIPARFGGSGSGTDFTLTIDPVQADDVATYYCQQSYEDPWTFGGGTKLEIK | 2.18 | 0.000523 | 240000 |
| cmVH1 + cmVL1 chimeric antibody (antibody, human IgG1, V domains shown, also called analyte 2) VH: EVQLVESGPSLVKPGGSLRLTCSVTGDSITSGYWKWIRKFPGNKLEYMGYISYSGITDYNPSLKSRITISRDTSKNQYYLQLNSVTTEDTATYYCARYGNYGYAMDYWGQGTSVTVSS VL: DIVMTQSPASLSVSLGQRATISCRASESVDTYGRSFMHWYQQKPGQSPKLLIYRASNLESGIPARFGGSGSGTDFTLTIDPVQADDVATYYCQQSYEDPWTFGGGTKLEIK | 0.8 | 0.000182 | 228000 |
| cmVH2 + cmVL2 chimeric antibody (antibody, human IgG1, V domains shown, also called analyte 3) VH: EVQLVESGPSLVKPGGSLRLTCSVTGDSITSGYWKWIRKFPGNKLEYMGYISYSGITDYNPSLKSRITISRDTSKNQYYLQLNSVTTEDTATYYCARYPNYGYAMDYWGQGTSVTVSS VL: DIVMTQSPASLSVSLGQRATISCRASESVDTYGRSFMHWYQQKPGQSPKLLIYRASNLESGIPARFGGSGSGTDFTLTIDPVQADDVATYYCYQSYEDPWTFGGGTKLEIK | 0.914 | 0.000159 | 174000 |
| cmVH2 + cmVL3 chimeric antibody (antibody, human IgG1, V domains shown, also called analyte 4) VH: EVQLVESGPSLVKPGGSLRLTCSVTGDSITSGYWKWIRKFPGNKLEYMGYISYSGITDYNPSLKSRITISRDTSKNQYYLQLNSVTTEDTATYYCARYPNYGYAMDYWGQGTSVTVSS VL: DIVMTQSPASLSVSLGQRATISCRASESVDTYGRSFMHWYQQKPGQSPKLLIYRASNLESGIPARFGGSGSGTDFTLTIDPVQADDVATYYCHQSYEDPWTFGGGTKLEIK | 0.868 | 0.000162 | 186000 |

Other lines, results leading:

| Kd [nM] | koff [s⁻¹] | kon [M⁻¹ s⁻¹] | Binder |
| --- | --- | --- | --- |
| 0.858 | 0.000185 | 216000 | cmVH3 + cmVL3 chimeric antibody (antibody, human IgG1, V domains shown, also called analyte 6) VH: EVQLVESGPSLVKPGGSLRLTCSVTGDSITSGYWKWIRKFPGNKLEYMGYISYSGITDYNPSLKSRITISRDTSKNQYYLQLNSVTTEDTATYYCARYANYGYAMDYWGQGTSVTVSS VL: DIVMTQSPASLSVSLGQRATISCRASESVDTYGRSFMHWYQQKPGQSPKLLIYRASNLESGIPARFGGSGSGTDFTLTIDPVQADDVATYYCHQSYEDPWTFGGGTKLEIK |
| 0.9 | 0.000168 | 187000 | cmVH3 + cmVL2 chimeric antibody (antibody, human IgG1, V domains shown, also called analyte 5) VH: EVQLVESGPSLVKPGGSLRLTCSVTGDSITSGYWKWIRKFPGNKLEYMGYISYSGITDYNPSLKSRITISRDTSKNQYYLQLNSVTTEDTATYYCARYANYGYAMDYWGQGTSVTVSS VL: DIVMTQSPASLSVSLGQRATISCRASESVDTYGRSFMHWYQQKPGQSPKLLIYRASNLESGIPARFGGSGSGTDFTLTIDPVQADDVATYYCYQSYEDPWTFGGGTKLEIK |
